How the values were obtained:
[1] = tested on: CO/N=C(\C(=O)N[C@@H]1C(=O)N2C(C(=O)[O-])=C(C[N+]3(C)CCCC3)CS[C@H]12)c1csc(N)n1; experiment: purified protein, by the assay type; conditions: other: PDC-1 (WT), antibiotics: determined as Ki app with nitrocefin as reporter substrate, 10 mM PBS, pH 7.4, room temperature
Procedure: (§1) The Km (affinity, concentration of antibiotic at which the reaction rate is half of Vmax) values of each antibiotic were determined as Ki app (affinity of the enzyme for the inhibitor/antibiotic), measuring the residual β-lactamase activity using nitrocefin as the reporter substrate. The kcat (catalytic rate constant) values were determined by monitoring direct hydrolysis of the antibiotic at a substrate concentration much greater than Km (at least three times the Km), to ensure the reaction was at Vmax ([5]). […] Each parameter was determined in triplicate with 10 mM phosphate-buffered saline, pH 7.4, at room temperature.

[2] = tested on: CC(C)(O/N=C(\C(=O)N[C@@H]1C(=O)N2C(C(=O)[O-])=C(C[N+]3(CCNC(=O)c4ccc(O)c(O)c4Cl)CCCC3)CS[C@H]12)c1csc(N)n1)C(=O)O; experiment: purified protein, by the assay type; conditions: other: PDC-1 (WT), antibiotics: determined as Ki app with nitrocefin as reporter substrate, 10 mM PBS, pH 7.4, room temperature
Procedure: as §1

[3] = tested on: O=C(Cc1cccs1)N[C@@H]1C(=O)N2C(C(=O)O)=C(/C=C/c3ccc([N+](=O)[O-])cc3[N+](=O)[O-])CS[C@H]12; experiment: purified protein, by the assay type; conditions: other: PDC-1 (WT), antibiotics: determined as Ki app with nitrocefin as reporter substrate, 10 mM PBS, pH 7.4, room temperature
Procedure: as §1

[4] = tested on: Cn1c(N)c(NC(=O)NCCN)c[n+]1CC1=C(C(=O)O)N2C(=O)[C@@H](NC(=O)/C(=N\OC(C)(C)C(=O)[O-])c3nsc(N)n3)[C@H]2SC1; experiment: purified protein, by the assay type; conditions: other: PDC-1 (WT), antibiotics: determined as Ki app with nitrocefin as reporter substrate, 10 mM PBS, pH 7.4, room temperature
Procedure: as §1

[5] = tested on: CC(C)(O/N=C(\C(=O)N[C@@H]1C(=O)N2C(C(=O)[O-])=C(C[n+]3ccccc3)CS[C@H]12)c1csc(N)n1)C(=O)O; experiment: purified protein, by the assay type; conditions: other: PDC-1 (WT), antibiotics: determined as Ki app with nitrocefin as reporter substrate, 10 mM PBS, pH 7.4, room temperature
Procedure: as §1

PDC L293P = PDC L293P (Pseudomonas aeruginosa, UniProt P24735, L320P); experiment: Steady-state kinetics of purified β-lactamase
Sequence of PDC L293P (P24735 27-397 L320P): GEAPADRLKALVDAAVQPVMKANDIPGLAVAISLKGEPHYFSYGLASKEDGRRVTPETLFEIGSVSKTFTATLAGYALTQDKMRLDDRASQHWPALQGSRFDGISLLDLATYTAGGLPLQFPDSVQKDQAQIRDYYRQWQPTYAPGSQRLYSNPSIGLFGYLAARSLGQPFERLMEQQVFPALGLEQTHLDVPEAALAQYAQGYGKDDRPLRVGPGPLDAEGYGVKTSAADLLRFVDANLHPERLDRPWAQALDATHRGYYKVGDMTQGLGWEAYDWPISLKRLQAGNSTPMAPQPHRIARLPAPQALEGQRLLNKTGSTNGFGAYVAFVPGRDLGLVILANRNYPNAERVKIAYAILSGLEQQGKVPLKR
Procedure: as §1

PDC E219K = PDC E219K (Pseudomonas aeruginosa, UniProt P24735, E247K); experiment: Steady-state kinetics of purified β-lactamase
Sequence of PDC E219K (P24735 27-397 E247K): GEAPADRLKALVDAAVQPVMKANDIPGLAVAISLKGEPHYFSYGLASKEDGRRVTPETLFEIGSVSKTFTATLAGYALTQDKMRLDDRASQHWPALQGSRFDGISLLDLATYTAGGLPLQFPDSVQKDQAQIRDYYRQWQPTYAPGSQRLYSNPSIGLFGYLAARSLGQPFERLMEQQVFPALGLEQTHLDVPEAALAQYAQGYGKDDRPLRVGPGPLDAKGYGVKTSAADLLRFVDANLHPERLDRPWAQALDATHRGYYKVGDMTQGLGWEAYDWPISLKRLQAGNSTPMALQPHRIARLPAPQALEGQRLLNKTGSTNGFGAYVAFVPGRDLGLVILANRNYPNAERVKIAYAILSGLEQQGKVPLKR
Procedure: as §1

PDC-1 (WT) = PDC-1 (WT) (Pseudomonas aeruginosa, UniProt P24735); experiment: Steady-state kinetics of purified β-lactamase; conditions: kcat/Km relative to PDC-1 (reference = 1)
Sequence of PDC-1 (WT) (P24735 27-397): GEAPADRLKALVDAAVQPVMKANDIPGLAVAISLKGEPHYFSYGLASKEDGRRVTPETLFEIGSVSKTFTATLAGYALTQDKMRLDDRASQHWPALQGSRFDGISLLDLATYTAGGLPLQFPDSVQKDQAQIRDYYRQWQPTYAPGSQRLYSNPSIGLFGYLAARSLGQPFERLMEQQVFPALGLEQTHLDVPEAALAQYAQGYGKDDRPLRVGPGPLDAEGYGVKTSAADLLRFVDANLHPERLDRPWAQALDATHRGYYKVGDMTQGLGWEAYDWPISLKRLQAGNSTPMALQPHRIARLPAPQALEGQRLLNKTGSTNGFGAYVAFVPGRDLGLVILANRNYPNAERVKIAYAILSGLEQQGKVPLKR
Procedure: as §1

[6] = ratio of kcat/Km (fold change in catalytic efficiency)

Question: For “PDC-1 (WT) (Pseudomonas aeruginosa PAO1)”, which Km [1] is on record?
Answer: Its Km is 132.06 ± 23.69 µM.

Question: What about the kcat [1] of the same compound?
Answer: The kcat was 0.138 ± 0.009 s⁻¹.

Question: What about the kcat/Km [1] of the same compound?
Answer: The kcat/Km was 1050 M⁻¹ s⁻¹.

Question: What about the Km [2] of the same compound?
Answer: Its Km is 85.29 ± 9.48 µM.

Question: And the kcat [2]?
Answer: Its kcat is 0.0036 ± 0.0007 s⁻¹.

Question: What about the kcat/Km [2] of the same compound?
Answer: The kcat/Km was 40 M⁻¹ s⁻¹.

Question: And the Km [3]?
Answer: Its Km is 13.98 ± 0.80 µM.

Question: And the kcat [3]?
Answer: Its kcat is 21.9 ± 6.5 s⁻¹.

Question: And the kcat/Km [3]?
Answer: Its kcat/Km is 1.55e+06 ± 380000 M⁻¹ s⁻¹.

Question: And the Km [4]?
Answer: Its Km is 554.08 ± 3.00 µM.

Question: What about the kcat [4] of the same compound?
Answer: The kcat was 0.0715 ± 0.0006 s⁻¹.

Question: What about the kcat/Km [4] of the same compound?
Answer: The kcat/Km was 130 M⁻¹ s⁻¹.

Question: What about the Km [5] of the same compound?
Answer: Its Km is 18.08 ± 0.88 µM.

Question: What about the kcat [5] of the same compound?
Answer: Its kcat is 0.0082 ± 0.0007 s⁻¹.

Question: And the kcat/Km [5]?
Answer: The kcat/Km was 450 M⁻¹ s⁻¹.

Question: For `O=C(Cc1cccs1)N[C@@H]1C(=O)N2C(C(=O)O)=C(/C=C/c3ccc([N+](=O)[O-])cc3[N+](=O)[O-])CS[C@H]12` [Nitrocefin, nitrocefin], which Km (PDC L293P; PDC L293P, antibiotics: determined as Ki app with nitrocefin as reporter substrate, 10 mM PBS, pH 7.4, room temperature) is on record?
Answer: Its Km is 6.71 ± 1.28 µM.

Question: And the kcat (PDC L293P; PDC L293P, direct hydrolysis at substrate concentration at least three times the Km, 10 mM PBS, pH 7.4, room temperature)?
Answer: The kcat was 18.77 ± 4.37 s⁻¹.

Question: What about the “Ratio for PDC L293P/PDC-1” value (PDC L293P; [6]) of the same compound?
Answer: Its value is 1.80.

Question: And the Km (PDC E219K; PDC E219K, antibiotics: determined as Ki app with nitrocefin as reporter substrate, 10 mM PBS, pH 7.4, room temperature)?
Answer: Its Km is 24.1 ± 4.01 µM.

Question: And the kcat (PDC E219K; PDC E219K, direct hydrolysis at substrate concentration at least three times the Km, 10 mM PBS, pH 7.4, room temperature)?
Answer: Its kcat is 4.41 ± 0.18 s⁻¹.

Question: And the “Ratio for PDC E219K/PDC-1” value (PDC E219K; [6])?
Answer: The value was 0.12.

Question: What about the Ratio (PDC-1 (WT)) of the same compound?
Answer: The Ratio was 1.

Reference: PMC12217463, “Functional and structural analyses of amino acid sequence variation in PDC β-lactamase reveal different mechanistic pathways toward cefiderocol resistance in Pseudomonas aeruginosa” (Antimicrobial Agents and Chemotherapy, 2025)
